Biological target: the molecule itself
Assay: cryo-EM structure; single-particle cryo-EM of purified Panx2-NT (Superose 6 peak at 16.0 ml), 50 mM Tris pH 7.5, 150 mM NaCl, 0.02% GDN, ~10 mg/ml; C1 map without imposed symmetry, final refinement with C7 symmetry at ~3.4 Å

B1: human pannexin 2 N-terminal domain (Panx2-NT, amino acids 1-410) (domain or fragment, UniProt Q96RD6-3 1-410, looked up)
chain: MHHLLEQSADMATALLAGEKLRELILPGAQDDKAGALAALLLQLKLELPFDRVVTIGTVLVPILLVTLVFTKNFAEEPIYCYTPHNFTRDQALYARGYCWTELRDALPGVDASLWPSLFEHKFLPYALLAFAAIMYVPALGWEFLASTRLTSELNFLLQEIDNCYHRAAEGRAPKIEKQIQSKGPGITEREKREIIENAEKEKSPEQNLFEKYLERRGRSNFLAKLYLARHVLILLLSAVPISYLCTYYATQKQNEFTCALGASPDGAAGAGPAVRVSCKLPSVQLQRIIAGVDIVLLCVMNLIILVNLIHLFIFRKSNFIFDKLHKVGIKTRRQWRRSQFCDINILAMFCNENRDHIKSLNRLDFITNESDLMYDNVVRQLLAALAQSNHDATPTVRDSGVQTVDPSAN
modifications: N-glycosylated on N86 (extra density observed near N86)
notes: Pannexin 2 (PANX2), H. sapiens, NCBI NP_443071.2, 677 residues in full; construct Panx2-NT holds amino acids 1-410, made to mimic the caspase-cleaved truncation; the model holds residues 41-184, 188-266, 273-373 and 377-388; also called C-terminal truncated Panx2; human N-terminal Panx2; source: HEK293F, transient transfection (PEI), purified (DDM solubilisation, anti-FLAG M2 agarose, Superose 6 …)
stoichiometry N: 7
